Measurements as given in patent US20040038876A1 (published 2004).

T1: Shh receptor molecules on C3H10T1/2 cells (UniProt Q61115 1-1434)
T1 sequence (looked up): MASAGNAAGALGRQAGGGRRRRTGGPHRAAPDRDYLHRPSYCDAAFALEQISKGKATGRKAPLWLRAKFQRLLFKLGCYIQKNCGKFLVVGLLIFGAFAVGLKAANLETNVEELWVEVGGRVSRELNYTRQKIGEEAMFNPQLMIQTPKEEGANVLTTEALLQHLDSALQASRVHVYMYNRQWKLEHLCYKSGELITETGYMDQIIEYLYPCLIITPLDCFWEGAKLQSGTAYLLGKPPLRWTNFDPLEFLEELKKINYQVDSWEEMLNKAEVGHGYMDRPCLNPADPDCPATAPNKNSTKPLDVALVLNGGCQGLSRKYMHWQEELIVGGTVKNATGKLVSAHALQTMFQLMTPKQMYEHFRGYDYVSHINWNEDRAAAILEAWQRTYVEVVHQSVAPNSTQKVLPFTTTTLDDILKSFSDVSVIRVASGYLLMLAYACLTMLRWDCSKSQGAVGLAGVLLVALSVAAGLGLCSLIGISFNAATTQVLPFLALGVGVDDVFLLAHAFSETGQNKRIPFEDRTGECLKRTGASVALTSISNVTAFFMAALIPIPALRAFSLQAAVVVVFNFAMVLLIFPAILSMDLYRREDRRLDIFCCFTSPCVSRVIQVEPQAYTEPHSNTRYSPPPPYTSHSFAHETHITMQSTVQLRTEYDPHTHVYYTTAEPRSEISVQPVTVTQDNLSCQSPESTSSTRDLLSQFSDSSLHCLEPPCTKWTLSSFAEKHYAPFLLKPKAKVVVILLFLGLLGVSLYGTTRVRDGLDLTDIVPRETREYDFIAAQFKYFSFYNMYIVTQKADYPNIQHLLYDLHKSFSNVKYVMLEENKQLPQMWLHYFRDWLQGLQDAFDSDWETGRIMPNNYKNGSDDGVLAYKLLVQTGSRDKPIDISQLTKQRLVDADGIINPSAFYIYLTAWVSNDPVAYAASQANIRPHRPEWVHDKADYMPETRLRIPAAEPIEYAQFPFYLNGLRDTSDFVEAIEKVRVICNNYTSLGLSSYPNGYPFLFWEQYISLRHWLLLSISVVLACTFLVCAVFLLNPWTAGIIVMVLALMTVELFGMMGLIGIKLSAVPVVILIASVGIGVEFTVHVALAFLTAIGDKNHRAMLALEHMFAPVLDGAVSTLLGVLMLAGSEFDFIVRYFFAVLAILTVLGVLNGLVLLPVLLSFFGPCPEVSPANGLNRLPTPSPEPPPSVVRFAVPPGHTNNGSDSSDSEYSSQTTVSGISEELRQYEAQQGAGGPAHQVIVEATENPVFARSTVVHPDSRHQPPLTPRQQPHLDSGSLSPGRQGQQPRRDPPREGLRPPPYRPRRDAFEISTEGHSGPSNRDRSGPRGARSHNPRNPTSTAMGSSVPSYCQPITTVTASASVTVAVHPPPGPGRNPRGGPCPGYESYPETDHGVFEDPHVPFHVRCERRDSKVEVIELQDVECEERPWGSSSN

B1: mutant 45 (Shh C1II/A169C + G146C), unmodified (ligand)
chain: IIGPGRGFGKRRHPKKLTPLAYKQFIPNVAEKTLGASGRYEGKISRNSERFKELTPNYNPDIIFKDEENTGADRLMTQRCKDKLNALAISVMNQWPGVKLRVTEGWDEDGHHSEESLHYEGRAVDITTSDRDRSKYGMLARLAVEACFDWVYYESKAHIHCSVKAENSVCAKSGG
B2: mutant 45 (Shh C1II/A169C + G146C), 5 K PEG (ligand)
chain: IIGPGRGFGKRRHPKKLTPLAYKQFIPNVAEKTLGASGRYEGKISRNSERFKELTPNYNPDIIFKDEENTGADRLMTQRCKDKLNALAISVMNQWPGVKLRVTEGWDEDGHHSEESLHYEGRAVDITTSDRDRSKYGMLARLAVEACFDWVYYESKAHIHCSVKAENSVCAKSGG
modifications: 5 K PEG maleimide on thiol of Cys146, Cys169
B3: mutant 44 (Shh C1II/A169C + E113C), 5 K PEG (ligand)
chain: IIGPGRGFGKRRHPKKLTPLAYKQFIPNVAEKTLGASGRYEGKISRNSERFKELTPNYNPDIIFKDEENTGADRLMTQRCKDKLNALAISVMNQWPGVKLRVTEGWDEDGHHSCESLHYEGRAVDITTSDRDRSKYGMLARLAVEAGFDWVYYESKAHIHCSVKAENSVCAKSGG
modifications: 5 K PEG maleimide on thiol of Cys113, Cys169
B4: mutant 44 (Shh C1II/A169C + E113C), unmodified (ligand)
chain: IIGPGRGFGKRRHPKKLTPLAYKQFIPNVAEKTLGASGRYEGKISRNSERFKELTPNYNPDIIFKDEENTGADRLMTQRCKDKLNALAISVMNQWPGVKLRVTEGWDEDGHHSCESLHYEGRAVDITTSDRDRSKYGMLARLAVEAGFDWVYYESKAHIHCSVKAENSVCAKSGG

Molecular target: T1, Shh receptor molecules on C3H10T1/2 …
Assay: cell-based or functional assay

Point of comparison: B4, “IC50 in C3H10T1/2 assay” value 1 µg/mL. Against it:
- B1 — 3.3-fold lower, 0.3 µg/mL
- B2 — 2-fold lower, 0.5 µg/mL
- B3 — 1.7-fold lower, 0.6 µg/mL
